# Measurements from patent US20230330251A1, “METHODS FOR TREATING CANCERS WITH ANTIBODY DRUG CONJUGATES (ADC) THAT BIND TO 191P4D12 PROTEINS” (AGENSYS, INC., priority 2020, published 2023).
# System: subjects with previously treated locally advanced or metastatic urothelial cancer
# Experiment: EV-301: safety, adverse events (safety analysis set, NCI-CTCAE v4.03, MedDRA)
# [1] = Grade Any, N = 296 EV, 291 chemotherapy
# [2] = Grade ≥3, N = 296 EV, 291 chemotherapy
# [3] = MedDRA v23.0, N = 296 EV, 291 chemotherapy
# [4] = No baseline PN, n = 241 EV, 233 chemotherapy
# [5] = PY = 132.3 EV, 96.1 chemotherapy
# [6] = any event, N = 296 EV, 291 chemotherapy
# Source text: The Safety Analysis Set (SAF) will be used for the safety analysis. All subjects who are randomized and received study drug will be included in the SAF. The frequency of AEs and the serious AEs will be summarized by MedDRA system organ class and preferred term. In addition, summary statistics will be provided for the following safety parameters: • Laboratory values • Vital sign measurements • ECOG PS
# An AE is any untoward medical occurrence in a subject, temporally associated with the use of a medicinal product, whether or not considered related to the medicinal product. An AE can therefore be any unfavorable and unintended sign (including an abnormal laboratory finding), symptom, or disease (new or exacerbated) temporally associated with the use of a medicinal product.
# AEs, including abnormal clinical laboratory values, will be graded using the NCI-CTCAE guidelines (Version 4.03).
# The safety analysis set (SAF), which consists of all subjects who received any amount of study drug, will be used for safety analyses.
# SAF was used to perform all safety analysis. All treated subjects were analyzed according to the treatment they received.
# The number and percentage of AEs by severity were also summarized. All AEs were listed.
# A study drug-related TEAE is defined as any TEAE with a causal relationship of YES by the investigator. AEs of interest as classified by customized MedDRA queries and/or standard MedDRA queries were also summarized.
substance,measurement,setting,value
enfortumab vedotin,"TRAE of special interest: Infusion-related reactions, %",[1],8.8%
same,"TRAE of special interest: Infusion-related reactions, Local events, %",[1],1.0%
same,"TRAE of special interest: Infusion-related reactions, Systemic events, %",[1],7.8%
same,"TRAE of special interest: Ocular disorders, %",[1],18.6%
same,"TRAE of special interest: Peripheral neuropathy, %",[1],46.3%
same,"TRAE of special interest: Peripheral neuropathy, Motor events, %",[1],7.4%
same,"TRAE of special interest: Peripheral neuropathy, Sensory events, %",[1],43.9%
same,"TRAE of special interest: Rash, %",[1],43.9%
same,"TRAE of special interest: Severe cutaneous adverse reaction, %",[1],20.3%
same,"TRAE of special interest: Skin reactions, %",[1],47.0%
same,"TRAE: Alopecia, Number of patients",[2],0
same,"TRAE: Anemia, Number of patients",[2],8
same,"TRAE: Anemia, percent",[2],(2.7) percent
same,"TRAE: Any adverse event, Number of patients",[2],152
same,"TRAE: Any adverse event, percent",[2],(51.4) percent
same,"TRAE: Decreased appetite, Number of patients",[2],9
same,"TRAE: Decreased appetite, percent",[2],(3.0) percent
same,"TRAE: Decreased neutrophil count, Number of patients",[2],18
same,"TRAE: Decreased neutrophil count, percent",[2],(6.1) percent
same,"TRAE: Decreased white-cell count, Number of patients",[2],4
same,"TRAE: Decreased white-cell count, percent",[2],(1.4) percent
same,"TRAE: Diarrhea, Number of patients",[2],10
same,"TRAE: Diarrhea, percent",[2],(3.4) percent
same,"TRAE: Dysgeusia, Number of patients",[2],0
same,"TRAE: Fatigue, Number of patients",[2],19
same,"TRAE: Fatigue, percent",[2],(6.4) percent
same,"TRAE: Febrile neutropenia, Number of patients",[2],2
same,"TRAE: Febrile neutropenia, percent",[2],(0.7) percent
same,"TRAE: Maculopapular rash, Number of patients",[2],22
same,"TRAE: Maculopapular rash, percent",[2],(7.4) percent
same,"TRAE: Nausea, Number of patients",[2],3
same,"TRAE: Nausea, percent",[2],(1.0) percent
same,"TRAE: Neutropenia, Number of patients",[2],14
same,"TRAE: Neutropenia, percent",[2],(4.7) percent
same,"TRAE: Peripheral sensory neuropathy, Number of patients",[2],9
same,"TRAE: Peripheral sensory neuropathy, percent",[2],(3.0) percent
same,"TRAE: Pruritus, Number of patients",[2],4
same,"TRAE: Pruritus, percent",[2],(1.4) percent
same,"TEAE with special safety interest: Any corneal disorders (SMQ), %",[3],(1.0%)
same,"TEAE with special safety interest: Any hyperglycemia (SSQ/CMQ), %",[3],(11.8%)
same,"TEAE with special safety interest: Any infusion related reactions (SSQ/CMQ), %",[3],(9.1%)
same,"TEAE with special safety interest: Any peripheral neuropathy (SMQ), %",[3],(50.3%)
same,"TEAE with special safety interest: Any rashes or severe cutaneous adverse reactions, %",[3],(53.7%)
same,"Treatment-emergent Hyperglycemia, %",[4],(5.8) %
same,"Treatment-emergent Peripheral motor neuropathy, %",[4],(9.1) %
same,"Treatment-emergent Peripheral neuropathy, %",[4],(50.6) %
same,"Treatment-emergent Peripheral sensory neuropathy, %",[4],(48.5) %
same,"most frequent Grade 3 or greater adverse event(s): rash, hyperglycemia, decreased neutrophil count, fatigue, anemia and decreased appetite, share of patients",PADCEV arm,more than 5%
same,"Grade ≥3 severity TEAE, E (number of events)",[5],617
same,"Grade ≥3 severity TEAE, E/PY",[5],(4.7) E/PY
same,"Grade ≥3 severity TRAE, E (number of events)",[5],320
same,"Grade ≥3 severity TRAE, E/PY",[5],(2.4) E/PY
same,"Overall TEAE, E (number of events)",[5],5051
same,"Overall TRAE, E (number of events)",[5],3033
same,"Serious TEAE, E (number of events)",[5],314
same,"Serious TRAE, E (number of events)",[5],114
same,"TEAE Leading to death, E (number of events)",[5],21
same,"TEAE Leading to death, E/PY",[5],(0.2) E/PY
same,"TEAE Leading to death, excluding disease progression, E (number of events)",[5],11
same,"TEAE Leading to death, excluding disease progression, E/PY",[5],(0.1) E/PY
same,"TEAE Leading to dose interruption, E (number of events)",[5],536
same,"TEAE Leading to dose interruption, E/PY",[5],(4.1) E/PY
same,"TEAE Leading to dose reduction, E (number of events)",[5],170
same,"TEAE Leading to dose reduction, E/PY",[5],(1.3) E/PY
same,"TEAE Leading to treatment withdrawal, E (number of events)",[5],66
same,"TEAE Leading to treatment withdrawal, E/PY",[5],(0.5) E/PY
same,"TRAE Leading to death, E (number of events)",[5],7
same,"TRAE Leading to death, E/PY",[5],(0.1) E/PY
same,"TRAE Leading to death, excluding disease progression, E (number of events)",[5],7
same,"TRAE Leading to death, excluding disease progression, E/PY",[5],(0.1) E/PY
same,"TRAE Leading to dose interruption, E (number of events)",[5],384
same,"TRAE Leading to dose interruption, E/PY",[5],(2.9) E/PY
same,"TRAE Leading to dose reduction, E (number of events)",[5],165
same,"TRAE Leading to dose reduction, E/PY",[5],(1.2) E/PY
same,"TRAE Leading to treatment withdrawal, E (number of events)",[5],51
same,"TRAE Leading to treatment withdrawal, E/PY",[5],(0.4) E/PY
same,"TRAE Leading to dose interruption, %",[6],(51.0) %
same,"TRAE Leading to dose reduction, %",[6],(32.4) %
same,"TRAE Leading to dose withdrawal, %",[6],(13.5) %
same,"Adverse events, regardless of relationship to treatment, that resulted in death (excluding disease progression) during the treatment period",in vivo,11 patients
same,Investigator-assessed treatment-related adverse events that resulted in death,in vivo,7 patients
same,"Investigator-assessed treatment-related adverse events that resulted in death, %",in vivo,2.4%
same,Skin reactions and peripheral neuropathy among treatment-related adverse events of special interest,in vivo,most frequent
same,"Treatment-related adverse events of grade 3 or higher, rate after adjustment for treatment exposure",in vivo,2.4 events per patient-year
same,"time to first onset of grade ≥2 peripheral neuropathy, median (range)",in vivo,"4.435 (0.36, 12.02) months"
same,treatment-related death: abnormal hepatic function,in vivo,1 patient
same,treatment-related death: hyperglycemia,in vivo,1 patient
same,treatment-related death: multiorgan dysfunction syndrome,in vivo,2 patients
same,treatment-related death: pelvic abscess,in vivo,1 patient
same,treatment-related death: pneumonia,in vivo,1 patient
same,treatment-related death: septic shock,in vivo,1 patient
same,"Time to Onset of TRAE of special interest: Blurred vision, Median (range)",patients with the event,2.448 months
same,"Time to Onset of TRAE of special interest: Corneal disorders, Median (range)",patients with the event,4.337 months
same,"Time to Onset of TRAE of special interest: Dry eye, Median (range)",patients with the event,1.906 months
same,"Time to Onset of TRAE of special interest: Hyperglycemia, Median (range)",patients with the event,0.559 months
same,"Time to Onset of TRAE of special interest: Infusion-related reactions, Median (range)",patients with the event,0.509 months
same,"Time to Onset of TRAE of special interest: Peripheral neuropathy, Median (range)",patients with the event,2.694 months
same,"Time to Onset of TRAE of special interest: Skin reactions, Median (range)",patients with the event,0.427 months
same,incidence of treatment-related adverse events,safety population,93.9%
